Source: patent publication US12258605B2, “Alkane oxidation by modified hydroxylases” (The California Institute of Technology, priority 2005, dated 2025)

Columns and labels:
[1] = palmitate; cited from earlier work
Activity on palmitate = type: biochemical
Description: To evaluate the fate of the enzyme's original function, P450PMO activity was tested on the long-chain fatty acids laurate and palmitate.

[2] = Halomethane reactions (formaldehyde, PFBHA, GC-ECD): bromomethane; type: biochemical
Description: (§1) Halomethane reactions: Reactions with chloromethane, bromomethane, and iodomethane were carried out in 1 mL-scale using halomethane-saturated buffer (100 mM phosphate pH 8.0) and 50-500 nM purified protein. 900 μL buffer were added with protein, incubated for 15 seconds, and then added with 100 μL NADPH regeneration solution (100 units/mL IDH, 70 mg/mL isocitrate, 1.5 mg/ml NADP+). Solution were sealed and stirred for 30 minutes at 25° C. To reduce background levels of formaldehyde to a minimum, buffers were prepared using HPLC-grade water and autoclaved twice prior to use. Formaldehyde concentration in the reaction solutions was determined through derivatization with o-(2,3,4,5,6-pentafluorobenzyl)hydroxylamine hydrochloride (PFBHA) and gas chromatography. […] Organic phase was removed, diluted 1/100 v/v, and analyzed on a Shimadzu GC-17A gas chromatograph. […] Quantification was carried out using a calibration curve and solutions at known concentration of formaldehyde. […]
(§2) Along with activity on propane, P450PMO also hydroxylates ethane (TTN˜2,500), despite ethane's higher C—H bond energy (101.0 kcal mol^−1 versus 98.6 kcal mol^−1 for propane). […] Reactions with purified P450 variants and the halomethanes were analyzed for formaldehyde formation (FIG. 42). […] Activity on chloromethane was detected at lower levels (0.5-1% of propane activity) and in fewer P450 variants. […]

[3] = Halomethane reactions (formaldehyde, PFBHA, GC-ECD): iodomethane; type: biochemical; settings: formaldehyde formation
Description: as §1, §2

B1: Wild-type BM-3: wild-type cytochrome P450 BM-3 from Bacillus megaterium, SEQ ID NO:1 (protein, listed as Bacillus megaterium)
chain: TIKEMPQPKTFGELKNLPLLNTDKPVQALMKIADELGEIFKFEAPGRVTRYLSSQRLIKEACDESRFDKNLSQALKFVRDFAGDGLFTSWTHEKNWKKAHNILLPSFSQQAMKGYHAMMVDIAVQLVQKWERLNADEHIEVPEDMTRLTLDTIGLCGFNYRFNSFYRDQPHPFITSMVRALDEAMNKLQRANPDDPAYDENKRQFQEDIKVMNDLVDKIIADRKASGEQSDDLLTHMLNGKDPETGEPLDDENIRYQIITFLIAGHETTSGLLSFALYFLVKNPHVLQKAAEEAARVLVDPVPSYKQVKQLKYVGMVLNEALRLWPTAPAFSLYAKEDTVLGGEYPLEKGDELMVLIPQLHRDKTIWGDDVEEFRPERFENPSAIPQHAFKPFGNGQRACIGQQFALHEATLVLGMMLKHFDFEDHTNYELDIKETLTLKPEGFVVKAKSKKIPLGGIPSPSTEQSAKKVRKKAENAHNTPLLVLYGSNMGTAEGTARDLADIAMSKGFAPQVATLDSHAGNLPREGAVLIVTASYNGHPPDNAKQFVDWLDQASADEVKGVRYSVFGCGDKNWATTYQKVPAFIDETLAAKGAENIADRGEADASDDFEGTYEEWREHMWSDVAAYFNLDIENSEDNKSTLSLQFVDSAADMPLAKMHGAFSTNVVASKELQQPGSARSTRHLEIELPKEASYQEGDHLGVIPRNYEGIVNRVTARFGLDASQQIRLEAEEEKLAHLPLAKTVSVEELLQYVELQDPVTRTQLRAMAAKTVCPPHKVELEALLEKQAYKEQVLAKRLTMLELLEKYPACEMKFSEFIALLPSIRPRYYSISSSPRVDEKQASITVSVVSGEAWSGYGEYKGIASNYLAELQEGDTITCFISTPQSEFTLPKDPETPLIMVGPGTGVAPFRGFVQARKQLKEQGQSLGEAHLYFGCRSPHEDYLYQEELENAQSEGIITLHTAFSRMPNQPKTYVQHVMEQDGKKLIELLDQGAHFYICGDGSQMAPAVEATLMKSYADVHQVSEADARLWLQQLEEKGRYAKDVWAG
In the case of B1, the Coupling efficiency [1] is listed as 93% and the catalytic efficiency [1] is listed as 6e+07 M⁻¹ s⁻¹.

B2: P450PMO: P450 BM-3 variant, SEQ ID NO:125; 7-7 plus G443A and D698G; propane monooxygenase (protein)
chain: TIKEMPQPKTFGELKNLPLLNTDKPVQALMKIADELGEIFKFEAPGCVTRYISSQRLIKEACDESRFDKNLSQELKFFRDFGGDGLFTSWTHEINWKKAHNILLPSFSQQAMKGYHAMMVDIAVQLVQKWERLNADEHIEVSEDMTRLTLDTIGLCGFNYRFNSFYRDQPHPFIISMVRALDEVMNKPQRANPDDPAYDENKRQCQEDIKVMNDLVDKIIADRKARGEQSDDLLTQMLNGKDPETGEPLDDGNISYQIITFLIAGHETTSGLLSFALYFLVKNPHVLQKVVEEAARVLVDPVPSYKQVKQLKYVGMVLNEALRLWPTFPAFSLYAKEDTVLGGEYPLEKGDEVMVLIPQLHRDKTVWGDDVEEFRPERFENPSAIPQHAFKPFGNGQRACIGQQFALHEATLVLGMMLKHFDFEDHTNYELDIKETLTLKPEAFVVKAKSKKIPLGGIPSPSTGQSAKKVRKKAENAHNTPLLVLYGSNMGTAEGTARDLADIAMSKGFAPQVATLDSHAGNLPREGAVLIVTASYNGHPPDNAKQFVDWLDQASADEVKGVRYSVFGCGDKNWATTYQKVPAFIDETLAAKGAENIADRGEADASDDFEGTYEEWREHMWSDVAAYFNLDIENSEDNKSTLSLQFVDSAADMPLAKMHGAFSTNVVASKELQQPGSARSTRHLEIELPKEASYQEGGHLGVIPRNYEGTVNRVTARFGLDASQQIRLEAEEEKLAHLPLAKTVSVEELLQYVELQDPVTRTQLRAMAAKTVCPPHKVELEALLEKQAYKEQVLAKRLTMLELLEKYPACEMKFSEFIALLPSIRPRYYSISSSPRVDEKQASITVSVVSGEAWSGYGEYKGIASNYLAELQEGDTITCFISTPQSEFTLPKDPETPLIMVGPGTGVAPFRGFVQARKQLKEQGQSLGEAHLYFGCRSPHEDYLYQEELENAQSEGIITLHTAFSRMPNQPKTYVQHVMEQDGKKLIELLDQGAHFYICGDGSQMAPAVEATLMKSYADVHQVSEADARLWLQQLEEKGRYAKDVWAG
modifications: Mutant P450PMO protein sequence
notes: 7-7 plus G443A and D698G; propane monooxygenase
With B2 the “hydroxylated fatty acids formed” value (Activity on palmitate) was “no detectable amounts of hydroxylated fatty acids”, the “turnover rates, halomethane dehalogenase activities” value ([2]; CH3Cl, CH3Br, CH3I, estimated from 30 minute-reactions) was 0.5-5 min^−1 and the bromomethane dehalogenase activity ([2]; formaldehyde formation) was 1-5 % of the propane activity. The iodomethane dehalogenase activity [3] was “could be detected”.
